In patent US5625031, “Peptide inhibitors of the p33^cdk2 and p34^cdc2 cell cycle regulatory kinases and human papillomavirus E7 oncoprotein” (Bristol-Myers Squibb Company, dated 1997):

What follows are binders tested against T1, p34^cdc2 cell cycle regulatory kinase (Homo sapiens (Human), UniProt P06493) (assay: IC50 column of Table 1 (ELISA based competition, competitor plate-bound p107 30mer)).

Row | Binder | IC50 [µM]
1 | LCAKYIMAK [p107 9mer peptide 715FK] | > 100
2 | LCAFYKMAK [p107 9mer peptide 717IK] | > 100
3 | YIMAK [p107 N5mer peptide] | > 100
4 | LCAAYIMAK [p107 9mer peptide 715FA] | > 100

The binders below were run against T1, p34^cdc2 cell cycle regulatory kinase (assay: IC50 column of Table 1 (ELISA based competition on p107 30mer-coated plate)).

Row | Binder | binding result
5 | LCAKYIMAK [p107 9mer peptide 715FK] | no binding (tested: >100 µM)
6 | LCAFYKMAK [p107 9mer peptide 717IK] | no binding (tested: >100 µM)
7 | YIMAK [p107 N5mer peptide] | no binding (tested: >100 µM)
8 | LCAAYIMAK [p107 9mer peptide 715FA] | no binding (tested: >100 µM)
